The target in test [1] is N-type calcium channels in cultured mouse dorsal root ganglion (DRG) neurons (Swiss mice) (UniProt O55017). The experiment in a line: cell-based or functional assay.
In test [2] the target is N-type Ca channels (receptor binding screen of Example 1).
In another test the target is IL-8RB (UniProt P25025). Description: competitive radioligand binding; 10 µM unlabelled Tat-NR2B9c; competitor labeled IL-8.
IL-8RB, sequence (P25025 whole entry): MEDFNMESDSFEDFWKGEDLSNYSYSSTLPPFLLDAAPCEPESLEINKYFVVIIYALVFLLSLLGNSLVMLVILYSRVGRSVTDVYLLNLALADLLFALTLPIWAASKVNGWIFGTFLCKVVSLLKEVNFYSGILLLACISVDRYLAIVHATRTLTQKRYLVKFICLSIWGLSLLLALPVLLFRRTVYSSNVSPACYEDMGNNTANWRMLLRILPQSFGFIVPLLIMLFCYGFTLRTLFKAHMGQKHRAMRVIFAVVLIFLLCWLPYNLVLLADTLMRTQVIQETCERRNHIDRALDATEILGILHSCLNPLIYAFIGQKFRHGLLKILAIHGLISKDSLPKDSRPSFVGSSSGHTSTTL

Consider 1987 D-Tat-NR2B9c (peptide), for which the Ca^2+ current shown as a percentage, peptide at 100 µM in test [1] turned out to be 82%.

As for 1990 TAT (peptide), the Ca^2+ current shown as a percentage, peptide at 100 µM in test [1] turned out to be 57%. Same read-out and setting: for 1992 Tat-NR2B9c-AA (peptide) the value was 74%; for 1993 F-Tat-NR2B9c (peptide), 91%. Tat-NR2B9c (peptide): the % inhibition of labeled ligand binding came to 100% in test [2] and 80% with IL-8RB.

B1: 1991 2B9c (peptide)
peptide: KLSSIESDV
As for B1, the Ca^2+ current shown as a percentage, peptide at 100 µM in test [1] amounted to 94%.

For the origin of these results see US20150018283A1.
